Tests used:
[1] = molecular target: Wild-type S-crystallin (OctS4) of Octopus vulgaris (Octopus vulgaris); assay: AUC; sedimentation velocity, 20 °C, 42,000 rpm, protein 0.025–1.0 mg/ml in 50 mM phosphate, pH 6.5; continuous c(M) distribution by SEDFIT
Octopus GST-σ = tested on: T1, Octopus GST-σ; assay: GSH-CDNB conjugation, absorbance […] nm; format: biochemical, Octopus vulgaris; conditions: GSH 10 mM; apparent; read-out: Km,CDNB (mM) ^c
T1 construct: gene GST-sigma

stoichiometry N [1]	Compound	Km (Octopus GST-σ) [mM]
2	Wild-type S-crystallin (OctS4) of Octopus vulgaris (natural protein)	
	O=[N+]([O-])c1ccc(Cl)c([N+](=O)[O-])c1 [CDNB, 1-chloro-2,4-dinitrobenzene]	0.47 ± 0.04
